Source: patent publication US20040018530
Where two headings read alike, the source gives them in different places.

Tests used:
[1] = system: IgE (immunoglobulin E, monoclonal, kappa light chain) (Homo sapiens); details: affinity capillary electrophoresis with LIF; PBS, 1 mM MgCl2, 40 mM NaCl, pH 8.0, 25 C
[2] = system: IgE (immunoglobulin E, monoclonal, kappa light chain) (Homo sapiens); details: affinity capillary electrophoresis with LIF; PBS, 1 mM MgCl2, 35 mM NaCl, pH 8.0, 25 C
[3] = system: IgE (immunoglobulin E, monoclonal, kappa light chain) (Homo sapiens); details: CE-UV binding assay up to 2.5 uM IgE; round 1 pool 33% bound; PBS, 1 mM MgCl2, pH 8.0, 25 C
[4] = system: IgE (immunoglobulin E, monoclonal, kappa light chain) (Homo sapiens); details: CE-UV binding assay up to 1.1 uM IgE; round 1 pool 67% bound; PBS, 1 mM MgCl2, pH 8.0, 25 C
[5] = system: IgE (immunoglobulin E, monoclonal, kappa light chain) (Homo sapiens); details: CE-UV binding assay; rounds 1, 2, 3 gave 62, 96, ~100% bound; PBS, 1 mM MgCl2, pH 8.0, 25 C
[6] = system: IgE (immunoglobulin E, monoclonal, kappa light chain) (Homo sapiens); details: affinity capillary electrophoresis with LIF; PBS, 1 mM MgCl2, pH 8.0, 25 C; literature value 10 nM; cited from earlier work

Sequence “AGCAGCACAGAGGTCAGATGGATGGGGGGGTCTAACGTGCGATCTGCCGACTTTATCCTGCCTATGCGTGCTACCGTGAA [Clone 2.27]” has a Kd [1] of 52 nM.
Work on “AGCAGCACAGAGGTCAGATGGTAATTTTCGCTGCGATTAGGCTTGTGACAAAATTACTATCCTATGCGTGCTACCGTGAA [Clone 1.8]” yielded a Kd [2] of 293 nM.
Work on “AGCAGCACAGAGGTCAGATGNNNNNNNNNNNNNNNNNNNNNNNNNNNNNNNNNNNNNNNNCCTATGCGTGCTACCGTGAA [CE-SELEX experiment 1 round 2 enriched pool]” yielded a binding [3] of 100 % bound.
Sequence “AGCAGCACAGAGGTCAGATGNNNNNNNNNNNNNNNNNNNNNNNNNNNNNNNNNNNNNNNNCCTATGCGTGCTACCGTGAA [CE-SELEX experiment 2 round 2 enriched pool]” has a binding [4] of 100 % bound.
In the case of “AGCAGCACAGAGGTCAGATGNNNNNNNNNNNNNNNNNNNNNNNNNNNNNNNNNNNNNNNNCCTATGCGTGCTACCGTGAA [CE-SELEX experiment 3 round 4 enriched pool]”, the binding [5] is reported as 100 % bound.
In the case of “CTACCTACGATCTGACTAGCGGGGCACGTTTATCCGTCCCTCCTAGTGGCGTGCCCCGCTTACTCTCATGTAGTTCC [conventional SELEX IgE aptamer]”, the Kd [6] is given as 4 nM.
